The assay deals with 8H9 antigen (human) (UniProt Q5ZPR3). Kind of assay: cell-based or functional assay.
UniProt Q5ZPR3, sequence (Q5ZPR3 29-534): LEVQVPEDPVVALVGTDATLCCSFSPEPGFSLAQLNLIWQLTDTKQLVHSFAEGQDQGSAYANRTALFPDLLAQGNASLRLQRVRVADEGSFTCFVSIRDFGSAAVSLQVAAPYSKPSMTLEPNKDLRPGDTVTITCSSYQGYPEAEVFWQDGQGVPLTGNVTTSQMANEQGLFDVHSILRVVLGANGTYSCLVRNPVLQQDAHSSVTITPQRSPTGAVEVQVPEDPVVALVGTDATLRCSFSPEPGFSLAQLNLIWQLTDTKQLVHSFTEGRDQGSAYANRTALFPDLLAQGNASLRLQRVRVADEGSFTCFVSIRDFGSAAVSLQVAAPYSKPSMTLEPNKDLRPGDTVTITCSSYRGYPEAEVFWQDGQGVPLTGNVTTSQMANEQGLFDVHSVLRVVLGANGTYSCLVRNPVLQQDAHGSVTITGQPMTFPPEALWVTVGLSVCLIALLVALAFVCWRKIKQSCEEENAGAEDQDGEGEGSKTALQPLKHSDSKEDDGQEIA

As to 8H9(scFv)-PE38, the IC50 of 8H9(Fv)-PE38 (ng/ml) on BT-474 cells turned out to be 20 ng/mL, the IC50 of 8H9(Fv)-PE38 (ng/ml) on CRL1427 (MG63) cells worked out at 50 ng/mL, the IC50 of 8H9(Fv)-PE38 (ng/ml) on LAN-1 cells came to 12.5 ng/mL and the IC50 of 8H9(Fv)-PE38 (ng/ml) on MCF-7 cells was found to be 5 ng/mL. The substance further showed an IC50 of 8H9(Fv)-PE38 (ng/ml) on NMB-7 cells of 9 ng/mL, an IC50 of 8H9(Fv)-PE38 (ng/ml) on OHS-M1 cells of 20 ng/mL, an IC50 of 8H9(Fv)-PE38 (ng/ml) on SK-N-BE(2) cells of 90 ng/mL and an IC50 of 8H9(Fv)-PE38 (ng/ml) on U2OS cells of 30 ng/mL. The substance also had an IC50 of 8H9(Fv)-PE38 (ng/ml) on ZR-75-1 cells of 35 ng/mL.

The values are drawn from patent publication US20060051359A1.
